{
  "source": "the supplement of paper PMC10201428",
  "note": "± gives the standard deviation of the averaged measurements.",
  "data": [
    {"system": "VchCAST RNA-guided transposition machinery (E. coli BL21(DE3) host, lacZ target)", "test": "relative integration efficiency (T-RL orientation) vs wild-type transposon end (log2 (normalized fold change)); transposon end mutated: left end; higher = more efficient transposition", "protocol": "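Pooled, barcoded VchCAST (Tn6677) mini-transposon donor libraries; each variable transposon-end sequence sits in a fixed pDonor mini-transposon context (10-bp barcode and cargo not included). Left- or right-end libraries were co-transformed with pEffector (TniQ-Cascade, TnsABC, lacZ crRNA, T7, 0.1 mM IPTG) into E. coli BL21(DE3) and grown 18 h at 37 C. T-LR and T-RL junction amplicons were sequenced; output/input barcode fold change was normalised to the mean of four wild-type barcodes and log2-transformed. Two biological replicates; zero-count/undetected variants carry floor values (-10 / -15), censored here. Barcode uncoupling by PCR recombination adds noise.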", "values": [
      {"sequence": "AATGTTGTTGATGCAACCATAAAGTGATATTTAATAATTATTTATAATCAGCAACTTAACCACAAAATGTGAATCGAGTATTTCAGCCAACCATATATTGATATCTCACAAAACAACCATAAGTTGATATTTTAAAACTACTGCAGTAAGAA", "relative integration efficiency (log2)": "-5.8 ± 1.9"},
      {"sequence": "AATGTTGTTGATGCAACCATAAAGTGATATTTAATAATTATTTATAATCAGCAACCATATATTGATATCTCCAACTTAACCACAAAAACAAAACAACCATAAGTTGATATTTTTGTGAATCGAGTATTTCAGCAAAACTACTGCAGTAAGAA", "relative integration efficiency (log2)": "-6.03 ± 0.52"},
      {"sequence": "AATGTTGTTGATGCAACCATAAAGTGATATTTAATAATTATTTCAACCATATATTGATATCTCATAATCAGCAACTTAACCACAAAAACAAAACAACCATAAGTTGATATTTTTGTGAATCGAGTATTTCAGCAAAACTACTGCAGTAAGAA", "relative integration efficiency (log2)": "-5.79 ± 0.8"},
      {"sequence": "AATGTTGTTGATGCAACCATAAAGTGATATTTAATAATTATTTATAATCAGCAACTTAACCACAAAACAACCATATCGGTCGCGAGACACCCCACCAACGCCTGGTCGCGGGGGTGTCCGATCTGATTTCAGCAAAACTACTGCAGTAAGAA", "relative integration efficiency (log2)": "-6.09 ± 0.98"},
      {"sequence": "AATGTTGTTGATGCAACCATAAAGTGATATTTAATAATTATTTAGCCGACTACCAGGCCAACACCCCACCAACGCGCGGTCGCGAGACACCCCACCAACGCCTGGTCGCGGGGGTGTCCGATCTGATTTCAGCAAAACTACTGCAGTAAGAA", "relative integration efficiency (log2)": "-7.02 ± 1.2"},
      {"sequence": "AATGTTGTTGATGCAACCATAAAGTGATATTTAATAATTATTTATAATCAGCAACTTAACCACAAAATGTGAATCGAGTATTTCAGCAAAACTACTGCAACCATATATTGATATCTCACAAAACAACCATAAGTTGATATTTTCAGTAAGAA", "relative integration efficiency (log2)": "-6.39 ± 0.78"},
      {"sequence": "AATGTTGTTGATGCAACCATAAAGTGATATTTAATAATTATTTATAATCAGCAACTTAACCCACCCCACCAACGCGCGGTCGCGAGACACCCCACCAACGCCTGGTCGCGGGGGTGTCCGATCTGATTTCAGCAAAACTACTGCAGTAAGAA", "relative integration efficiency (log2)": "-6.3 ± 1.9"},
      {"sequence": "AATGTTGTTGATGTGTTGATCAACCATAAAGTGATATTTAATAATTATTTATAATCAGCAACTTAACCACAAAACAACCATATATTGATATCTCACAAAACAACCATAAGTTGATATTTTTGTGAATCGAGTATTTCAGCAAAACTACTGCA", "relative integration efficiency (log2)": "-4.39 ± 0.52"},
      {"sequence": "AATGTTGTTGATGCAACCATAAAGTGATATTTAATAATTATTTATAACAACCATATATTGATATCTCACAAAACAACCATAAGTTGATATTTTTGTGAATCGAGTATTTCAGCAAAACTACTGCAGTAAGAAAGTTACTTCGTGGTATGGGA", "relative integration efficiency (log2)": "-6.45 ± 1"},
      {"sequence": "AATGTTGTTGATGCAACCATAAAGTGATATAATTATTTATAATCAGCAACTTAACCACAAAACAACCATATATTGATATCTCACAAAACAACCATAAGTTGATATTTTTGTGAATCGAGTATTTCAGCAAAACTACTGCAGTAAGAAAGTTA", "relative integration efficiency (log2)": "-6.82 ± 0.68"},
      {"sequence": "AATGTTGTTGATGCAACCATAAAGTGATATTTAATAATTATTTATAATCAGCAACCAACCATATATTGATATCTCTTAACCACAAAAACAAAACAACCATAAGTTGATATTTTTGTGAATCGAGTATTTCAGCAAAACTACTGCAGTAAGAA", "relative integration efficiency (log2)": "-5.89 ± 1.6"},
      {"sequence": "AATGTTGTTGATGCAACCATAAAGTGAATAAATATAATTATTTATAATCAGCAACTTAACCACAAAACAACCATATATTGAATAGAGACAAAACAACCATAAGTTGAATAAAATGTGAATCGAGTATTTCAGCAAAACTACTGCAGTAAGAA", "relative integration efficiency (log2)": "-4.14 ± 1.6"}
    ]},
    {"system": "VchCAST RNA-guided transposition machinery (E. coli BL21(DE3) host, lacZ target)", "test": "relative integration efficiency (T-LR orientation) vs wild-type transposon end (log2 (normalized fold change)); transposon end mutated: right end (5 bp flank + 75 bp right end); higher = more efficient transposition", "outline": "(§1)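 Barcoded pools of 1549 left-end or 1849 right-end transposon variants were cloned into a pUC57 mini-transposon donor. Each pool was co-transformed with a T7-driven effector plasmid (CRISPR array, tniQ-cas8-cas7-cas6, tnsA-tnsB-tnsC) into E. coli BL21(DE3) and plated with 0.1 mM IPTG at 37°C for 18 h. Input plasmids and genomic integration junctions were PCR-amplified and Illumina-sequenced, with two biological output replicates and four wild-type barcodes as reference. Relative integration efficiency is output/input barcode abundance fold change, normalised to wild-type barcodes and log-transformed.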", "values": [
      {"sequence": "ACATTTGTTGATACAACCATAAAATGATAATTACACCCATAACGTGATAATTATCACACCCATAAATTGATATTGCCTCTGATCATAGTCAGACCAACATTGCTACGACCCGTATTCGCACCGACAC", "relative integration efficiency (log2)": "0.32 ± 0.18"},
      {"sequence": "ACATTTCTTGATACAACCATAAAATGATAATTACACCCATAAATTCATAATTATCACACCCAATTTAACTATAACGCTCTGATCATAGTCAGACCAACATTGCTACGACCCGTATTCGCACCGACAC", "relative integration efficiency (log2)": "-0.103 ± 0.73"},
      {"sequence": "ACATTTGTGGATACAACCATAAAATGATAATTACACCCATAAATTCATAATTATCACACCCAATTTAACTATAACGCTCTGATCATAGTCAGACCAACATTGCTACGACCCGTATTCGCACCGACAC", "relative integration efficiency (log2)": "0.877 ± 0.27"}
    ]},
    {"system": "VchCAST RNA-guided transposition machinery (E. coli BL21(DE3) host, lacZ target)", "test": "relative integration efficiency (T-RL orientation) vs wild-type transposon end (log2 (normalized fold change)); transposon end mutated: right end (5 bp flank + 75 bp right end); higher = more efficient transposition", "outline": "as §1", "values": [
      {"sequence": "ACATTTGTTGATACAACCATAAAATGATAATTACACCCATAACGTGATAATTATCACACCCATAAATTGATATTGCCTCTGATCATAGTCAGACCAACATTGCTACGACCCGTATTCGCACCGACAC", "relative integration efficiency (log2)": "0.496 ± 0.076"},
      {"sequence": "ACATTTCTTGATACAACCATAAAATGATAATTACACCCATAAATTCATAATTATCACACCCAATTTAACTATAACGCTCTGATCATAGTCAGACCAACATTGCTACGACCCGTATTCGCACCGACAC", "relative integration efficiency (log2)": "-2.79 ± 0.24"},
      {"sequence": "ACATTTGTGGATACAACCATAAAATGATAATTACACCCATAAATTCATAATTATCACACCCAATTTAACTATAACGCTCTGATCATAGTCAGACCAACATTGCTACGACCCGTATTCGCACCGACAC", "relative integration efficiency (log2)": "-1.9 ± 0.49"}
    ]}
  ]
}
